From patent US20230382948A1, “DELIVERY OF ENDOTHELIAL CELL-LADEN MICROGEL ELICITS ANGIOGENESIS IN SELF-ASSEMBLING ULTRASHORT PEPTIDE HYDROGELS” (KING ABDULLAH UNIVERSITY OF SCIENCE AND TECHNOLOGY, priority 2020, published 2023)

How the values were obtained:
HUVECs = test: 3D SUP hydrogel bead assay coculture (angiogenesis in vitro assay); type: cell-based, human; details: for Endothelial network formation in bulky hydrogel: after 20 days of coculture, HUVEC-laden microgels, HDFn-loaded bulky hydrogel
Protocol: This assay was done by iterating the 4 combinations between SUP bulk-hydrogels ((3) and SUP microgels (p) (i.e., β-IVFK (SEQ ID NO. 1)+μ-IVFK (SEQ ID NO. 1); β-IVFK (SEQ ID NO. 1)+μ-IVZK (SEQ ID NO. 2); βIVZK (SEQ ID NO. 2)+μ-IVFK (SEQ ID NO. 1); β-IVZK (SEQ ID NO. 2)+μ-IVZK (SEQ ID NO. 2)). The next procedure is the same for all combinations using as an example β-IVFK (SEQ ID NO. 1)+μ-IVFK (SEQ ID NO. 1). HUVECs were cultured on μ-IVFK (SEQ ID NO. 1) for 24 h as described previously. By the bead assay seeding day, IVFK (SEQ ID NO. 1) powder for β-hydrogel was dissolved at 8 mg/mL in sterile water 1 h before seeding. Meanwhile, HDFn cells were harvested and resuspended in 2 xPBS at 1.2×10^6 HDFn cells/mL, and simultaneously, HUVEC laden μ-IVFK (SEQ ID NO. 1) were spun down in a tube at 50 g for 5 min. The supernatant was discarded, and 200 μL of HUVEC-ladenμ-IVFK (SEQ ID NO. 1) was mixed with 200 μL of HDFn cells in 2×PBS. Immediately, 100 μL of IVFK (SEQ ID NO. 1) solution at 8 mg/mL was poured on the culture dish and mixed with 100 μL of HUVEC-laden μ-IVFK (SEQ ID NO. 1) with HDFn cells in 2×PBS. The 3D hydrogel bead assay coculture was incubated at 37° C. for 10 min to guarantee β-IVFK (SEQ ID NO. 1) gelation. The final concentration of β-IVFK (SEQ ID NO. 1) was 4 mg/mL. Afterward, 2 mL of EGM-2 (EBM supplemented with singleQuots) was added to each dish containing the 3D hydrogel bead assay coculture, and the medium was changed every other day until fixation for immunofluorescence on culture day 8 and day 21.
The medium was removed from the 3D SUP hydrogel bead assay coculture samples and incubated with PBS at 37° C. for 15 min. Samples were fixed with 4% formaldehyde (v/v) in PBS for 30 min at 22° C. and washed with PBS for 15 min at 22° C. under rocking. Later, samples were detached from the bottom of the plate using a bent spatula and transferred to individual wells in a 24-well plate where they were permeabilized with 0.5 mL per well of (v/v) Triton® X-100 in PBS for 1 h at 22° C. under rocking. After, samples were blocked overnight at 4° C. in a wet chamber under rocking with 0.5 mL per well of 10% (v/v) goat serum in PBS containing 0.01% (v/v) Triton® X-100. From the next step and on, samples were protected from light all of the time. Samples were incubated for 36 h at 4° C. in a wet chamber under rocking with anti-CD31 Alexa® Fluor 647 and anti-Vimentin Alexa® Fluor 488, both diluted 1/100 in blocking buffer. Samples were washed with PBS for […] at 22° C. with shaking, replacing the PBS every hour. Then, cell nuclei were stained with 0.1 μg/mL DAPI in PBS for 5 min at 22° C. and washed three times with PBS for 5 min Finally, samples were transferred to 27 mm glass bottom dishes and imaged with a CLSM Zeiss® 710 or 880. Imaging of the entire sample was done by whole mount Z-stack tile scanning, and zoom-in images were Z-stack imaging with orthogonal views. Maximum intensity projections of the whole mount and zoom-in are presented.

pH of peptide solutions = type: physicochemical; details: for pH of the peptide solution: 5 mg/mL in Milli-Q water; for pH of the peptide solution after the addition of PBS: 5 mg/mL
Protocol: The preweighed (as per the required final concentration) peptide powder was dissolved in 0.9 mL of Milli-Q® water in a glass vial. The solution was vortexed for 5-10 s to obtain a clear and homogeneous solution. To this peptide solution, 0.1 mL of PBS buffer (10×, w/o Ca^2+ and Mg^2+) was added. To ensure a homogeneous distribution of buffer in the solution, the glass vial was further vortexed for 2-3 s. The glass vial was kept undisturbed on the bench, and hydrogel formation was observed using the vial inversion method, as shown in FIG. 9. The pH of the solutions of IVFK (SEQ ID NO. 1) and IVZK (SEQ ID NO. 2) was 5.57 and 5.48 at a 5 mg/mL concentration, respectively. After the addition of PBS, the pH changed to 7.7 and 7.6 for IVFK (SEQ ID NO. 1) and IVZK (SEQ ID NO. 2), respectively. The pH of the Milli-Q® water and phosphate buffer used was 6.7 and 7.4, respectively.

[1] = Rheological characterization of SUP bulk hydrogels; type: physicochemical
Protocol: The mechanical stiffness of the peptide hydrogels was analyzed using a TA Ares-G2 Rheometer equipped with parallel-plate geometries of 8 mm diameter at room temperature. The sample gap between the upper and the lower geometries was set at 1.8 mm. The hydrogels were prepared from 135 μL of peptide solution that was mixed with 15 μL of 10×PBS in an 8 mm i.d. poly(methyl methacrylate) (PMMA) casting ring and left for 1 day before measurement. The rings were kept inside Petri dishes at room temperature with water surrounding them and tightly sealed to avoid dehydration. To control the accuracy of the measurements, six replicates for each peptide hydrogel were prepared. The stiffness was analyzed through three successive tests, which were time sweep, frequency sweep, and amplitude sweep. Time sweep was first performed for 5 min with an angular frequency and a strain of 1 rad/s and 0.1%, respectively. A frequency sweep was subsequently performed on the sample for a range of angular frequency of 0.1-100 rad/s with the same strain of 0.1%. The tests were completed with the amplitude sweep by applying a gradual increase of strain […] at 1 rad/s angular frequency.

| Substance | Endothelial network formation in bulky hydrogel (HUVECs) | Endothelial sprouting (HUVECs; soft bulk hydrogel 4 mg/mL, after 8 days in culture) | pH of the peptide solution (pH of peptide solutions) | pH of the peptide solution after the addition of PBS (pH of peptide solutions) | Mechanical stiffness of hydrogel, comparison ([1]; IVZK versus IVFK hydrogels, FIG. 15) | Endothelial network, comparison of bulky hydrogels (HUVECs; IVFK versus IVZK bulky hydrogel, 20 days of coculture) | Lumen (branched hollow structures), comparison of bulky hydrogels (HUVECs; IVFK versus IVZK bulky hydrogels) | Linear viscoelastic (LVE) region of hydrogel, comparison ([1]; amplitude sweep, IVFK versus IVZK, FIGS. 18 and 19) |
| --- | --- | --- | --- | --- | --- | --- | --- | --- |
| Ac-Ile-Val-Cha-Lys-NH2 (IVXK; HELM PEPTIDE1{[ac].I.V.[Cha].K.[am]}$$$$V2.0; SMILES CC[C@H](C)[C@H](NC(C)=O)C(=O)N[C@H](C(=O)N[C@@H](CC1CCCCC1)C(=O)N[C@@H](CCCCN)C(N)=O)C(C)C) [IVZK, self-assembling ultrashort tetrapeptide, Z = cyclohexylalanine, forms hydrogels and microgels] | developed an evident endothelial network | show initial signs of sprouting | 5.48 | 7.6 | higher stiffness |  |  |  |
| Ac-Ile-Val-Phe-Lys-NH2 (Ac-IVFK-NH2) [self-assembling ultrashort tetrapeptide, forms hydrogels and microgels] | developed an evident endothelial network |  | 5.57 | 7.7 |  | more extended and complex | more visible and also larger | wider |
